# Measured values as given in paper PMC11835620, “CleanCap M6 inhibits decapping of exogenously delivered IVT mRNA”.
# Biological target: eIF4E (human, UniProt P06730 1-217)
# Test: EMSA; KD measured but printed only in the figure; higher affinity than M6 3'OMe; EMSA: 25 nM oligo, eIF4E 5 nM to 1.5 uM (2-fold dilutions), 100 mM NaCl, 50 mM Tris-Cl (pH and remaining components cut off in material), temperature not given
# Conditions: protein: recombinant; (stated for spectral shift oligos); single strand
# eIF4E, sequence (P06730 whole entry): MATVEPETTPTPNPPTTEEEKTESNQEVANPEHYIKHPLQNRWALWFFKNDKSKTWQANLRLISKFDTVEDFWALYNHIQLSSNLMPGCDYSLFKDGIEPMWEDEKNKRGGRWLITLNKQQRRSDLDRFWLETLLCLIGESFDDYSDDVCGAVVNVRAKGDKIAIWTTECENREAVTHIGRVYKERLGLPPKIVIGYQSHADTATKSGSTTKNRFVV
binder,measurement,value
"AGGAAAUAAGAGAGAAAAGAAGAGUAAGAAGAAAUAUAAGAGC (ssRNA, 5' cap m7GpppA(2'OMe)G; A1 is 2'-O-methyl; cap m7G not in strand) [AG 3'OH cap 43-mer]",binding result,binds
